{
  "source": "paper PMC9769551",
  "data": [
    {"biological_target": "T1, AcrR (Escherichia coli BW25113) (UniProt P0ACS9)", "T1 sequence": "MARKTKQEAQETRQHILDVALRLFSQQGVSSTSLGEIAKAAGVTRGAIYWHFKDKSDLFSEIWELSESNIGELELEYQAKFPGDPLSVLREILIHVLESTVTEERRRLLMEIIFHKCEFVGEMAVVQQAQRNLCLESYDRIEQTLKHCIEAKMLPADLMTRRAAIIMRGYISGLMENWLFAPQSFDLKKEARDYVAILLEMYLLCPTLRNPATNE", "test": "EMSA", "settings": "10 mM Tris-HCl pH 7.5, 50 mM KCl, 1 mM DTT, 5 mM MgCl2, 1 ug poly(dI-dC), 0.05% NP-40, 5% glycerol, 20 uL with 25 fmol DNA (protein stock in 200 mM NaCl, 20 mM …)", "values": [
      {"sequence": "CAAAGTAAAGTGGTCAAGCCCCGCGCATAGCGCAAGCTTTGGCAGAAGAAAGGACTAAAGCGCGTTGCGCCAGTGCTGCTCACCTACGAGCAAGATAGTGGATGAGGTACGAAGATGGGTAAATGTAGAAAATAACGTCCTGAACAAATTGTCCATAATATTACAATTATCCGCAGTGTTGCTTCTCGTCATCGCGGATGATAATTGTCCTCGGTAGTTGAACACGCCTGATTTGTATCATAGCTTAAGAATTAACTCAAAATATTTTCACTTCTTTACCTGAGCG (double strand) [mdtUJIp 286 bp]", "binding": "binds"},
      {"sequence": "CTTTGATAGTCATATATTCCACCAGCTATTTGTTAGTGAATAAAAGGTTGCCTGTAAAATTACAAAAACCTTACGCAGCGTCAAGCGGAATCGTGTCAATCATTGCGACAAATCAATCCTGTGCCTAAGCATTACGCGACTGACTCGCCTCACTCTTCCTTTGGGCTTGAGACCACATGGGGTCGGCGCCCCGAATTTTAAAGGGCAATTACGATAAAAATGTGATTTTCATCACGATTTAGGTGCAGC (double strand) [gapAp 249 bp]", "binding": "no binding"},
      {"sequence": "GTGGACTAAATTATCGCCATTACTGCGCTTTAAATGACCTTTATGTTCAATATTTTTTCAATCTAGCAGTGGGTTTTCATTTTTGCAAACTCAATTTAACATTTGACAAACATTTAGTTTGCATACAGATTCGAATGGTGGTCATTATATTTTACGCTTTGATAACGAGCGGAAAACAAACCAAAGGCGAAGAATCATGGAAACCAATATCGTTGAAGTAGAGAAC (double strand) [puuAp 226 bp]", "binding": "binds"},
      {"sequence": "TGTTCATATGTAAACCTCGAGTGTCCGATTTCAAATTGGTCAATGGTCAAAAGTTAATAAACCCATTGCTGCGTTTATATTATCGTCGTGCTATGGTACATACATTCACAAATGTATGTAAATCTAACGCCTGTAAATTCACGAACATATGGCACGAAAAACCAAACAAGAAGCGCAAG (double strand) [acrABp 179 bp]", "binding": "binds"}
    ]}
  ]
}
